*1 amine or outer side, *2 acyl side, *3 side chain or, on linkers, in order; H or OH if unused. Where no end group is shown, it is not given here. Side-chain parts run from the residue outwards. The star is where a group is joined. C18 diacid = O=C(O)CCCCCCCCCCCCCCCCC(=O)*; γGlu = O=C(O)[C@H](CCC(=O)[*:2])N[*:1]; AEEA = NCCOCCOCC(=O)O
How the values were obtained:
Assay in all cases: cell-based or functional assay
[1] = molecular target: T1, human GIPR (glucose-dependent insulinotropic polypeptide receptor) (human, UniProt P48546 22-466)
T1 sequence (looked up): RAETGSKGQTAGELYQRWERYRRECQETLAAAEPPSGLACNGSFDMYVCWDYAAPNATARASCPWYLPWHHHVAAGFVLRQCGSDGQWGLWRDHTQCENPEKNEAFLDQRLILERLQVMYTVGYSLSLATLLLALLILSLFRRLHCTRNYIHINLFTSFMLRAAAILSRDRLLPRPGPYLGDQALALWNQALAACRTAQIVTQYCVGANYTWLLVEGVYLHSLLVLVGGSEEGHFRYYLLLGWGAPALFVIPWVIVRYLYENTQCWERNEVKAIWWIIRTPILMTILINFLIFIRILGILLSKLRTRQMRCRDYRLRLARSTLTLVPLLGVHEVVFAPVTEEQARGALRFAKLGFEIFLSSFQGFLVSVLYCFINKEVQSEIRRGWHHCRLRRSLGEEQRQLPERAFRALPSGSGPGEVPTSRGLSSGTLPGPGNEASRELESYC

[2] = molecular target: human GLP-1R (glucagon-like peptide-1 receptor) (human, UniProt P43220 24-463)
[3] = molecular target: T2, human GLP-2R (glucagon-like peptide-2 receptor) (human, UniProt O95838 1-553)
T2 sequence (looked up): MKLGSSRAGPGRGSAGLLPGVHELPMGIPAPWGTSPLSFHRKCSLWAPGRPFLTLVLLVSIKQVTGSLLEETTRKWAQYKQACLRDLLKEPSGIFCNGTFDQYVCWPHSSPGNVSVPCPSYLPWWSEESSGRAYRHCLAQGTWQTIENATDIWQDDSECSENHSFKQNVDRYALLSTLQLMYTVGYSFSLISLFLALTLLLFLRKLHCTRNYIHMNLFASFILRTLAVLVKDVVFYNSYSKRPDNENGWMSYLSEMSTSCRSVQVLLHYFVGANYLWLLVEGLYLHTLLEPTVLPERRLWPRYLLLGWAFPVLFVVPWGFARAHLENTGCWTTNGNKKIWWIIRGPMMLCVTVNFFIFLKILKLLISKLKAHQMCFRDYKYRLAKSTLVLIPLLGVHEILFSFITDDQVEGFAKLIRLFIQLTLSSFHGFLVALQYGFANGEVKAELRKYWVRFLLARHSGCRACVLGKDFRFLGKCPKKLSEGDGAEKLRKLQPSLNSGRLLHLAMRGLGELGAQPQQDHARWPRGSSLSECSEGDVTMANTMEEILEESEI

human SNAP-tagged GLP-1R = human SNAP-tagged GLP-1R (human, UniProt P43220 24-463, SNAP tag labeled with Tag-Lite SNAP-Lumi4-Tb)
human SNAP-tagged GLP-2R = molecular target: T3, human SNAP-tagged GLP-2R (human, UniProt O95838 1-553, SNAP tag labeled with Tag-Lite SNAP-Lumi4-Tb)
T3 sequence (looked up): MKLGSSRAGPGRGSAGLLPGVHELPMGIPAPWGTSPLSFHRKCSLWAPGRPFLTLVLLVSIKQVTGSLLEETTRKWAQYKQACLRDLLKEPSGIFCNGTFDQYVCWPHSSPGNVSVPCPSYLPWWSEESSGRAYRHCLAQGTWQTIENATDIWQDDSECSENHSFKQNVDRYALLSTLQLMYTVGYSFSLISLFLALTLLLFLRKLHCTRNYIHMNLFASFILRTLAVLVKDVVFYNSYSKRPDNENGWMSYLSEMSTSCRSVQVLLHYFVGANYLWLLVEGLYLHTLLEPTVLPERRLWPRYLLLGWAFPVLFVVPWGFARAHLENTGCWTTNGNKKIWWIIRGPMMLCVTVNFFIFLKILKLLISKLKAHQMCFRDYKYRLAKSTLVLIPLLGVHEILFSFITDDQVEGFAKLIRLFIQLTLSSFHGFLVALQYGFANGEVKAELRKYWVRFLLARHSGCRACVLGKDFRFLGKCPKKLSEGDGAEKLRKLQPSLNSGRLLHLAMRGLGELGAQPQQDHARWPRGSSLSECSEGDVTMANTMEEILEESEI

[4] = molecular target: T4, Human N-terminally SNAP-tagged GIPR (human, UniProt P48546 22-466, SNAP tag labeled with Tag-Lite SNAP-Lumi4-Tb)
T4 sequence (looked up): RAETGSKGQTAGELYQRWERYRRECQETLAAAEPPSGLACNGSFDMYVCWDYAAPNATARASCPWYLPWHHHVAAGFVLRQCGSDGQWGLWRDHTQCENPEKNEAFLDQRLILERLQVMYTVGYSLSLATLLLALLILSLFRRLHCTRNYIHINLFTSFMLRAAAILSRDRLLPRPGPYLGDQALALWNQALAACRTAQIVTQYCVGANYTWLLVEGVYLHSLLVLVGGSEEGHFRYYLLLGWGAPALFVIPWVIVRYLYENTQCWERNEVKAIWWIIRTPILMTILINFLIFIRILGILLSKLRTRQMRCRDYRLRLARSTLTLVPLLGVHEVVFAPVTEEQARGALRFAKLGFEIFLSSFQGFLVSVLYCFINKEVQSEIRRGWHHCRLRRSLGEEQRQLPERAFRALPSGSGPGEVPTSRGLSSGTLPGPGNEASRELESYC

[5] = molecular target: human glucagon receptor (GCGR) (human, UniProt P47871 26-477, limits assumed)
Sequence of human glucagon receptor (GCGR) (P47871 26-477 limits assumed): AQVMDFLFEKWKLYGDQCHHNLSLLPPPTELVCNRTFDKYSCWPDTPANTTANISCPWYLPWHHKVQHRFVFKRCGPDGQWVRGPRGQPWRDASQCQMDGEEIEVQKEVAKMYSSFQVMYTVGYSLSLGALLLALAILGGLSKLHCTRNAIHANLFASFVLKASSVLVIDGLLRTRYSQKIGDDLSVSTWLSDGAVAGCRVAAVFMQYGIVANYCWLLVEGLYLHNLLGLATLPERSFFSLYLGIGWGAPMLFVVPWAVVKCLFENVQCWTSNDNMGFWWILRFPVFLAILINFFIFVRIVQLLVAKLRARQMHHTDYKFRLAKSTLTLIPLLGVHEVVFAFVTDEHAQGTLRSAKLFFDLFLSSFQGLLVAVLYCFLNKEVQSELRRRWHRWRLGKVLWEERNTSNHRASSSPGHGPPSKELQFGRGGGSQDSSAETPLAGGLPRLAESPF

EC50 (nM) GIPR [1]: 0.398 nM
Efficacy GIPR [1]: 104
pEC50 GIPR [1]: 9.4
EC50 (nM) GLP-1R [2]: 0.05 nM
Efficacy GLP-1R [2]: 122
logEC50 GLP-1R [2]: 10.3
EC50 (nM) GLP-2R [3]: 0.6 nM
Efficacy GLP-2R [3]: 104
logEC50 GLP-2R [3]: 9.2
Absolute hGLP-1R internalization (AUC) (human SNAP-tagged GLP-1R): 94.7 AUC
Relative hGLP-1R internalization (%) (human SNAP-tagged GLP-1R): 113%
Absolute hGLP-2R internalization (AUC) (human SNAP-tagged GLP-2R): 36.3 AUC
Relative hGLP-2R internalization (%) (human SNAP-tagged GLP-2R): 74.6%
Absolute hGIPR internalization (AUC) [4]: 10.2 AUC
Relative hGIPR internalization (%) [4]: 28%
potency in Gs activation, measured as cAMP accumulation (-p Log EC50) [5]: < 7 -p Log EC50
Binder: HADGTFTSDYSTILDK([AEEA-AEEA-γGlu-C18 diacid])LAARDFINWLIQTKGKKNDWKHNITQ-OH [Compound 21]
